Laboratory results: patent publication US20220348666A1 (SUZHOU CONNECT BIOPHARMACEUTICALS, published 2022)
Values joined by “and” are separate entries in the source; they are usually repeats but may differ in a detail not shown here. Equal values may be shown once.

Assays:
[1] = target: T1, sIL-4Rα (antigen, expressed according to NM_000418.4) (human, UniProt P24394 26-232, limits assumed); test: indirect ELISA, sIL-4Rα coated on plate, enzyme labeled secondary antibody, run 4
T1 construct: Soluble form coated on the ELISA plate; also called human interleukin-4 receptor alpha
T1 sequence (looked up): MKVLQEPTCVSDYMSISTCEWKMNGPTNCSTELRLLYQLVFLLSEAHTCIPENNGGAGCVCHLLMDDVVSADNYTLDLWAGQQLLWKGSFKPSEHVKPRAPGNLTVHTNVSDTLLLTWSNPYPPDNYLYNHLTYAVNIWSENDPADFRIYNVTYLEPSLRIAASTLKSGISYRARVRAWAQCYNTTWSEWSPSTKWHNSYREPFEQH
Description: (§1) The antigen (sIL-4Rα, expressed according to NM_000418.4) was coated and absorbed on a solid phase plate for ELISA, and then plate was washed, blocked and washed again before adding the samples to be tested for binding with the antigen. The samples to be tested were dilutions of the formulation prepared according to Example 6 of the present application, and the dilutions were obtained by diluting the formulation with 1% BSA to an antibody concentration of 1000 ng/mL, and subsequently performing a gradient dilution from an initial concentration of 1000 ng/mL to a concentration of 0 ng/mL. The unbound antibody was removed through washing after incubation, and an enzyme labeled secondary antibody was added for further incubation. After the unbound enzyme labeled secondary antibody was removed through washing, enzyme reaction substrate was added for color developing. Finally, the reaction was stopped by adding a stop solution, and absorbance values were read at 450 nm and 655 nm on a microplate reader. According to the absorbance values, half effective concentration EC₅₀ was calculated by curve fitting.

[2] = target: T1, sIL-4Rα (antigen, expressed according …); test: indirect ELISA, sIL-4Rα coated on plate, enzyme labeled secondary antibody, average value of 6 runs
Description: as §1

[3] = target: T1, sIL-4Rα (antigen, expressed according …); test: indirect ELISA, sIL-4Rα coated on plate, enzyme labeled secondary antibody, run 1
Description: as §1

[4] = target: T1, sIL-4Rα (antigen, expressed according …); test: indirect ELISA, sIL-4Rα coated on plate, enzyme labeled secondary antibody, run 6
Description: as §1

[5] = target: T1, sIL-4Rα (antigen, expressed according …); test: indirect ELISA, sIL-4Rα coated on plate, enzyme labeled secondary antibody, run 3
Description: as §1

[6] = target: T1, sIL-4Rα (antigen, expressed according …); test: indirect ELISA, sIL-4Rα coated on plate, enzyme labeled secondary antibody, run 2
Description: as §1

[7] = target: T1, sIL-4Rα (antigen, expressed according …); test: indirect ELISA, sIL-4Rα coated on plate, enzyme labeled secondary antibody, run 5
Description: as §1

[8] = target: T2, human interleukin-4 receptor alpha on HEK Blue IL4/IL13 cells (human, UniProt P24394 26-825); test: cell-based or functional assay
T2 sequence (looked up): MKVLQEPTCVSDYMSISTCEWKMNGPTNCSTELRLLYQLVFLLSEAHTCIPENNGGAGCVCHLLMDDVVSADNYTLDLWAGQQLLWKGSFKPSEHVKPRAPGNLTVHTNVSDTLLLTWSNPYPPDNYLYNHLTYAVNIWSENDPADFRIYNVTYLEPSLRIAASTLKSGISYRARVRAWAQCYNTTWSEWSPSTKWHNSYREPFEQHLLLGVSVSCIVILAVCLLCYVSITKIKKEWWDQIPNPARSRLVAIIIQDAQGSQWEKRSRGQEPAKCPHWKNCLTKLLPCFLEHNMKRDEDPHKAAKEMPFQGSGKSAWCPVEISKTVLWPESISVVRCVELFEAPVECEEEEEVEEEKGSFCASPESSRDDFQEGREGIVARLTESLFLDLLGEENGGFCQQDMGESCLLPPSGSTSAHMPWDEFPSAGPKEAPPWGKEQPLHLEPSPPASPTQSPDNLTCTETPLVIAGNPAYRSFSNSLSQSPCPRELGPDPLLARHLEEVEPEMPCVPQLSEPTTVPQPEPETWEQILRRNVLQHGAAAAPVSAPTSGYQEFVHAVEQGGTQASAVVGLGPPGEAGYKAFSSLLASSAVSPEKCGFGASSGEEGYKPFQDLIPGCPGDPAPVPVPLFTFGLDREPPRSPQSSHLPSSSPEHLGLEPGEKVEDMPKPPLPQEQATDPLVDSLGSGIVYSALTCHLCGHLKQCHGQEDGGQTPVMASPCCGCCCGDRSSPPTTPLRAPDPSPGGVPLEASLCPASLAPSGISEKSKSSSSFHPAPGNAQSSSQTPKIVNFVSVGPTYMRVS

EC50 [1]: 1.85 ng/mL and 1.8 ng/mL
EC50 [2]: 1.69 ng/mL and 1.56 ng/mL
EC50 [3]: 1.59 ng/mL and 1.4 ng/mL
EC50 [4]: 1.53 ng/mL and 1.45 ng/mL
EC50 [5]: 1.84 ng/mL and 1.77 ng/mL
EC50 [6]: 1.52 ng/mL and 1.28 ng/mL
EC50 [7]: 1.77 ng/mL and 1.84 ng/mL
IC50 (average value) of blocking STAT-6 signal transduction, HEK Blue IL4/IL13 cells with 0.5 ng/mL IL4, Quanti-blue absorbance at 650 nM [8]: 4.19 ng/mL and 4.51 ng/mL
B1: CBP-201 (antibody, human IgG4 S228P, kappa, V domains shown)
VH: EVQLVESGGGLVQPGGSLRLSCAASGFTFSRNAMFWVRQAPGKGLEWVSGIGTGGATSYADSVKGRFTISRDNAKNSLYLQMNSLRAEDTAVYYCARGRYYFDYWGQGTLVTVSS
VL: EIVLTQSPGTLSLSPGERATLSCRASQSVSSSYLAWYQQKPGQAPRLLIYGASSRATGIPDRFSGSGSGTDFTLTISRLEPEDFAVYYCQQYDHSAGWTFGQGTKVEIKR
notes: Monoclonal antibody; also called CBP-201 antibody; CBP-201 formulation
